Reference: US20060073508A1 (published 2006)

Target: GRK2 (βARK1)
Test: cell-based or functional assay

B1: hemagglutinin epitope-tagged wild-type human alpha-2B adrenergic receptor (receptor)
chain: YPYDVPDYAMDHQDPYSVQATAAIAAAITFLILFTIFGNALVILAVLTSRSLRAPQNLFLVSLAAADILVATLIIPFSLANELLGYWYFRRTWCEVYLALDVLFCTSSIVHLCAISLDRYWAVSRALEYNSKRTPRRIKCIILTVWLIAAVISLPPLIYKGDQGPQPRGRPQCKLNQEAWYILASSIGSFFAPCLIMILVYLRIYLIAKRSNRRGPRAKGGPGQGESKQPRPDHGGALASAKLPALASVASAREVNGHSKSTGEKEEGETPEDTGTRALPPSWAALPNSGQGQKEGVCGASPEDEAEEEEEEEEEEEECEPQAVPVSPASACSPPLQQPQGSRVLATLRGQVLLGRGVGAIGGQWWRRRAQLTREKRFTFVLAVVIGVFVLCWFPFFFSYSLGAICPKHCKVPHGLFQFFFWIGYCNSSLNPVIYTIFNQDFRRAFRRILCRPWTQTAW
- agonist-promoted whole cell phosphorylation of the receptor (10 µM norepinephrine): 5.84 fold increase
